Measurements taken from patent US6159731, “Daxx, a Fas-binding protein that activates JNK and apoptosis” (Massachusetts Institute of Technology, dated 2000).

How the values were obtained:
[1] = molecular target: full length murine Fas expressed in cells (murine) (UniProt P25446)
[2] = molecular target: glutathione S-transferase (GST) (Schistosoma japonicum (Blood fluke), UniProt P08515 = GST); assay: GST pull-down of in vitro translated 35S-Daxx
From the text: In the two-hybrid system, the Daxx C-terminal region interacted strongly with Fas, confirming that Daxx is the functional homolog of clone A21 (FIG. 1B). We then tested the binding of full length murine Daxx protein in vitro and in mammalian cells. In vitro translated, ^35S-labeled Daxx bound to immobilized glutathione S-transferase (GST) fusion proteins of Fas death domain and TNFR1 intracellular tail but not to immobilized GST or GST-CD40 intracellular tail or GST-Fas lpr^cg death domain (FIG. 3A). Positions of MW standards (in kDa) are shown at left. Coomassie stained GST fusion proteins from the same gel were aligned to show protein levels. Daxx migrated with an apparent molecular weight of approximately 120 kDa on SDS-PAGE; this slower than expected migration may reflect the high content of acidic residues in Daxx. In the GST pull-down assay, ^35S-Daxx bound to GST-FasDD but only very weakly to GST-TNFR1. This discrepancy with the two-hybrid result (FIG. 1) may be due to the nonlinear readout of the two-hybrid system. Deletion of 162 amino acids from the C-terminus of Daxx abrogated binding to GST-FasDD while the C-terminal 112 amino acids (DaxxC) was sufficient to bind GST-FasDD (FIG. 3B), consistent with the two-hybrid results. Daxx(-162) was missing C-terminal 162 aa of Daxx; DaxxC corresponded to aa 628-739. […]

Row | Molecule | specific apoptosis of L929 cells stably overexpressing Daxx (L/Daxx) after Fas transfection [1] [fold] | binding result [2]
1 | HA-Daxx (hemagglutinin-tagged full length murine Daxx) | 3 | –
2 | in vitro translated 35S-labeled full length murine Daxx (other, 35S-labeled (in vitro translated)) MATDDSIIVLDDDDEDEAAAQPGPSNLPPNPASTGPGPGLSQQATGLSEPRVDGGSSNSGSRKCYKLDNEKLFEEFLELCKTETSDHPEVVPFLHKLQQRAQSVFLASAEFCNILSRVLARSRKRPAKIYVYINELCTVLKAHSIKKKLNLAPAASTTSEASGPNPPTEPPSDLTNTENTASEASRTRGSRRQIQRLEQLLALYVAEIRRLQEKELDLSELDDPDSSYLQEARLKRKLIRLFGRLCELKDCSSLTGRVIEQRIPYRGTRYPEVNRRIERLINKPGLDTFPDYGDVLRAVEKAATRHSLGLPRQQLQLLAQDAFRDVGVRLQERRHLDLIYNFGCHLTDDYRPGVDPALSDPTLARRLRENRTLAMNRLDEVISKYAMMQDKTEEGERQKRRARLLGTAPQPSDPPQASSESGEGPSGMASQECPTTSKAETDDDDDDDDDDDEDNEESEEEEEEEEEEKEATEDEDEDLEQLQEDQGGDEEEEGGDNEGNESPTSPSDFFHRRNSEPAEGLRTPEGQQKRGLTETPASPPGASLDPPSTDAESSGEQLLEPLLGDESPVSQLAELEMEALPEERDISSPRKKSEDSLPTILENGAAVVTSTSVNGRVSSHTWRDASPPSKRFRKEKKQLGSGLLGNSYIKEPMAQQDSGQNTSVQPMPSPPLASVASVADSSTRVDSPSHELVTSSLCSPSPSLLLQTPQAQSLRQCIYKTSVATQCDPEEIIVLSDSD | – | no binding
